From publication PMC7215387, “Comparison of Target Recognition by TRAF1 and TRAF2” (International Journal of Molecular Sciences, 2020)
Residues, ends and D or L forms follow the SMILES beside them.

Columns and labels:
TRAF1 F347L mutant [1] = molecular target: T1, TRAF1 F347L mutant (Homo sapiens, UniProt Q13077, F347L); assay: Isothermal titration calorimetry (ITC), TRAF1 F347L mutant; format: binding; details: Supplementary Figure S2a,b
T1 construct: the TRAF1 TRAF domain (amino acid residues 220-416); 6xHis (C); made in house; host or cells: E. coli BL21 (DE3)
T1 sequence (Q13077 220-416 F347L): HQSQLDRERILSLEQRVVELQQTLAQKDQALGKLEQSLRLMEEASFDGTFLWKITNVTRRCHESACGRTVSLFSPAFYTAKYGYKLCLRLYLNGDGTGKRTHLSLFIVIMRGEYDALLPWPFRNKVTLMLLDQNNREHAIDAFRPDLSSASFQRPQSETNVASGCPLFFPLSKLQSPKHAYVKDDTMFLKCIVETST
Text: To understand how TRAF1 binds with higher affinity to TANK and caspase-2, we compared the amino acid sequence of the receptor-binding hot spots on TRAF1 and TRAF2. There are three well-known hot spots in TRAFs (Figure 5a). Based on the sequence comparison, two amino acid residues in TRAF1, F347 of hot spot1 and A369 of hot spot2, were not conserved in TRAF2 (Figure 5b). As the two non-conserved amino acid residues of TRAF1 may generate different conditions for receptor-binding regions and affect its affinity for various receptors, we compared the receptor-binding regions between TRAF1 and TRAF2 by comparing the TRAF1:TANK structure with the TRAF2:latent membrane protein 1 (LMP1) structure (Figure 5c). […] S454 of TRAF2 was not critical for the formation of an H-bond cluster, unlike residues S453 and S455, which were closely located to the Q at the P0 position of the receptor peptide. […] However, F347 on TRAF1 (corresponding to L432 on TRAF2) was critical for determining receptor preference and binding affinity by contributing to the formation of a stable hydrophobic pocket in the hot spot1 motif.
A NanoITC (TA Instruments) was used for isothermal titration calorimetry experiments. […] Binding isotherms were analyzed by using the software provided by TA Instruments. […]

TRAF2 S454A mutant = TRAF2 S454A mutant (UniProt Q12933); assay: ITC; TRADD with TRAF2 S454A mutant; who was titrated and conditions not told for this experiment
[2] = molecular target: T2, TRAF1 TRAF domain (amino acid residues 220-416) (UniProt Q13077 220-416); assay: SPR; Biacore T200; His-tagged TRAF domain held on Ni-NTA chip; TRADD-N 0.39-3.125 uM flowed over in PBS, 30 uL/min; details: both partners purified
T2 construct: TRAF1 (TNF receptor-associated factor 1), TRAF domain, residues 220-416; it speaks of 'trimeric TRAF1'; source: E. coli BL21 (DE3), purified (Ni-NTA, SEC); not shown: His6, C-terminal, kept
T2 sequence (looked up): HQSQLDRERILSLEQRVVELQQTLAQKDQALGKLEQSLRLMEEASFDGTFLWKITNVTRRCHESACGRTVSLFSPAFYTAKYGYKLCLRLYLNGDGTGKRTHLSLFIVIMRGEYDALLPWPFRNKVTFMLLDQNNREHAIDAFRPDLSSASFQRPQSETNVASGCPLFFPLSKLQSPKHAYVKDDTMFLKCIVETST

[3] = molecular target: T3, TRAF2 TRAF domain (amino acid residues 305-501) (UniProt Q12933 305-501); assay: as above; details: both partners purified
T3 construct: TRAF2 (TNF receptor-associated factor 2), TRAF domain, residues 305-501; it speaks of 'the three subunits of TRAF2'; source: E. coli BL21 (DE3), purified (Ni-NTA, SEC); not shown: His6, C-terminal, kept
T3 sequence (looked up): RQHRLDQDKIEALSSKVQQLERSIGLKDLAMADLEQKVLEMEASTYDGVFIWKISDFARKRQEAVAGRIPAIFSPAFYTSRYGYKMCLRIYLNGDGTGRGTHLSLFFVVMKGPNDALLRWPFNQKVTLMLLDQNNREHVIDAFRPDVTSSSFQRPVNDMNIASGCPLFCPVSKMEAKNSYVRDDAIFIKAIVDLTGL

[4] = molecular target: T2, TRAF1 TRAF domain (amino acid residues …); assay: ITC; NanoITC; peptide (1 mM) injected into the cell with TRAF domain (~20 uM); PBS; 15 °C; 25 injections; single site model; details: both partners purified
[5] = molecular target: T3, TRAF2 TRAF domain (amino acid residues …); assay: as above; details: both partners purified
TRAF1 F347L mutant [6] = molecular target: TRAF1 F347L mutant (UniProt Q13077); assay: as above

**Q.** Which Kd (TRAF1 F347L mutant [1]) does the source give for `CC[C@H](C)[C@H](NC(=O)[C@@H]1CCCN1C(=O)[C@@H](NC(=O)[C@@H](N)CO)C(C)C)C(=O)N[C@@H](CCC(N)=O)C(=O)N[C@@H](CS)C(=O)N[C@H](C(=O)N[C@@H](CC(=O)O)C(=O)N[C@@H](CCCCN)C(=O)N[C@H](C(=O)O)[C@@H](C)O)[C@@H](C)O` [TANK] (H-SVPIQCTDKT-OH) here?
**A.** ~15 µM

B1: N-terminal domain of TRADD (TRADD-N, amino acid residues 1-163) (domain or fragment, UniProt Q15628 1-163, looked up)
chain: MAAGQNGHEEWVGSAYLFVESSLDKVVLSDAYAHPQQKVAVYRALQAALAESGGSPDVLQMLKIHRSDPQLIVQLRFCGRQPCGRFLRAYREGALRAALQRSLAAALAQHSVPLQLELRAGAERLDALLADEERCLSCILAQQPDRLRDEELAELEDALRNLK
notes: TRADD (tumor necrosis factor receptor type 1-associated death domain protein), N-terminal domain, residues 1-163; Cloned into pET24a by NdeI and XhoI; source: E. coli, purified (almost identical to the method for TRAF1 and TRAF2; SEC in 20 mM Tris-HCl pH 8.0, 150 mM NaCl)
**Q.** What does the source list for B1?
**A.** Kd (TRAF2 S454A mutant): 0.055 µM; Kd [2]: 0.082 µM; Kd [3]: 0.018 µM

**Q.** Which Kd [4] does the source give for SVPIQCTDKT (source: synthetic peptide (Peptron)) [TANK peptide (SVPIQCTDKT)] here?
**A.** 2.5 µM

**Q.** And the Kd [5]?
**A.** 11.7 µM

**Q.** How did the Kd (TRAF1 F347L mutant [6]) turn out when TAQEM (source: synthetic peptide (Peptron)) [caspase-2 peptide (TAQEM)] was run?
**A.** 265 µM

**Q.** What about the Kd [4] of the same molecule?
**A.** 86.9 µM

**Q.** What about the Kd [5] of the same molecule?
**A.** 117 µM
